# Experimental data published in the DeepSol protein solubility set.
# Test: soluble on expression in E. coli; label from the status in PepcDB or PDB records
row,Sequence,soluble on expression in E. coli
1,MKTGYVLKGRVIDGTLGPALEQGAVVTEGERIAWVGPQSGLPAQYAGDRHTVVDLPGRTIMPGLIDAHTHISFGESRSEEENALYTPVEFRTAKALWYARKVLQAGVTSAFDAATSYNIAQAVRDAIDTGMFEGPRFTVSGKQLTNHHGLEDSFPNEMAFPPGQSAVLVKTREDLVEAIHYQVKDEVDAIKVSGSNDNLITPDALGSSAFTYEEFKIIADETHRLGRLCSVHARSRDAALYAAQAGFDNLFHASYIDDEGIEACLKNGCVITPTLTLLVNLVEAKQSHAGASSAQAFRQEIEAASVNLRRAYDAGVPLLAGSESGWSPVPYGHWHAREMEIFVKLLGLTPLQAIHANTLACTRLLARHGHEVGKLEASRLADVLVLPGNPLEDITLLQRPSRFDYIFKGGTPVDRTAPAPRVRKWYERTKIFLAGVYEYDQENACGRLVQ,not soluble
2,MKTIHIYTNGRLEEKRGDIVREFPLVLQVNGREIATLIASPHDLRFLVAGFLRNQGFVESAADFHMLAVCDEFGIANVRIRQELPERLKPVLTSGCGTGITFTLETGGREAAVAPSPAVAPEAVFRLMEELARQADNYRNHGGIHSAAVGDGEGNLLLFAEDIGRHNTLDRIAGEALLKGIDLAGRILVTSGRVSTEMASKCARLGIALVASRTSATDMAATLCHEAGICLLGYVRGGKFTVYTHSDRLLVPEQAAASLPGPVPRGRIPGVTGVILAGGQSSRMGSNKALLPYRGGRFIESIHRQLSEYFDEVIVVTNTPEQYEFLPCRKVTDIHEGMGALAGIHAGLHHSSNPAAFVVACDMPYLNGDLIRHLASMADPGGVLIPESPTGLEPLHAVYGKGCLAAIEATLLSGQRRIVSFFGRTNVNRVNVAQIAAFDPEFNSFRNINTPTDYYRLREIERGEALPAPADERAGASALEHHHHHH,not soluble
3,MKTIIREMVETIKQLFAQKQQMQEPVVANYEVSEIVEQKTLKKKEESEKTGEKTGKSNKWSQSLTLQLKEYLNDNFDFRYNNLTGATEYREKSGKNCFRPIDEREMNGMIVDARLEGIPCWRGDVPTMVLSNKVESYNPFHLYVKELPGWDGVDRVTPLLLRVSDNEIWLRGGRCWLRAMLSQWSGEERLHANVLTPVLISGKQGLSKSTFCRLLMPDSLRHYFIDNLNLAAGSSPEKKLVKNGLINLDEFDKIKESQQATLKNLLQMVNVPVFRGKRLGWVNESRLASFIATTNVYQVLIDSTGSRRFLCVEVLKPISEEPLEHKQIYAQLKEELKSGAPDYLNKEEEKALQKHNKAYYRQSLLEDVFHCCFRHPLETEKGIWLTTAEIFQVMRKFNSAALKEVSARQLGLKLSAMGYMAKHTSFGNRYYVFNLSAEKKDASL,not soluble
4,MKTIKDWQINICLATYNGQKYLRQQLDSIIQQGYTDWICLIRDDGSTDDTVAIIKEYVNRDSRFIFINSNDDRKLGSHRSFYELVNYKKADFYVFSDQDDVWKENRLERYLEEAEKFNQELPLLVYSNWTSVDEKLTVLKEHNPATVIQEQIAFNQINGMVIMMNHELAKLWEYRQIGAHDSYVGTLAYAVGNVAYISDSTVLWRRQVGAESLNNYGRQYGVATFWQMINTSFDRASLIFAQVSDKMSLERKLFFSRFIELKNANLMRRIYLLSKLKLRRKSLKETVAMTILLLTGYGKPKALEHHHHHH,soluble
5,MKTIRTEEAVGLPLSHDITRIDYGKTKEVCFKKGHIVVQEDIPILLSLGKKHLFVSLDPAEIHEEEAATFLYNLLTDDSCQPSEVHEGKIVAKASTRGLLKVNREKLIALNEIEGLALSTKVTNIEVQKDEKVAAFRVIPLTISKSQLEKARQLSTSEPLISVKPFKKIRVGIVTTGSEVYTGLVEDAFYPVLKAKFSAYPLVTIVKQEIVDDQPQKITVAIKKMLAQGVDLIVCTGGMSVDPDDLTPLAIKQTGAEIVTHGTPVLPGSMFLLAYKGEQTIIGLPGGVLFSEKTVFDLLLPRLMAKEVIKKSEIIDLSYGGYL,not soluble
6,MKTKFYDYQGEHLILYFAGWGTPPDAVNHLILPENHDLLICYDYQDLNLDFDLSAYRHIRLVAWSMGVWVAERVLQGIRLKSATAVNGTGLPCDDSFGIPYAIFKGTLENLTENTRLKFERRICGDKASFERYQLFPARPFDEIHQELTALFAMIQQDKRIDLIHWANAWVSSRDKIFTPANQHQYWALRCAVQEIEGEHYVFSRFTHWSALWDH,not soluble
7,MKTKNKILHANCLQLGGKGLLIIGPSGSGKSTLTLSLLDRAGWSKREAKLISDDYTMLRVENGKLQGSTPEGLQGGIEIRGVGLYTIEFEKQTTIDCVILLGPEYERFSTNQTFKFADLHIPLLKLPSLHEADCTAICQAIEAFFFRKVWLKSV,not soluble
